Reference: the DeepSol protein solubility set

experiment: soluble on expression in E. coli; label from the status in PepcDB or PDB records

**Q.** Which “soluble on expression in E. coli” value does the source give for “MGSDKIHHHHHHMQKYTSQKLDRLNWDDLRYFLEVARTQRASAAGKRLGVDHTTVARRVRELEAALGVILFDKSRADGFTLTSDGHRLLRHADAVETAVQSASEQFRGATQGLSGHVRIGSTEGFGCFFLSPQIARFTAAHRDVSIDILPVPHFVSLSKREADMAITLERPERGKYVFTRLCDYRLRLYGTRDYFLRHEPVRCIADLRHHAFIDYVADLAFSHELLYLNRTIPDVSSSLCSTSVIAQYFAALQGNALAILPCFMAAPNPMLVSILPDEVVVTRQFWLSSREDLRKLRRITVLWDYLRAATDANRPLLLGDSAELKYVQP” here?
**A.** not soluble

**Q.** Which “soluble on expression in E. coli” value does the source give for “MMDEEGAALPVWSRRLQQLTERSGLSQAELARRAGMSRDTYNRYCRGLTRPPRKKVLALAELFGVETWEIDPLEAGIAALRRESERSLEALGEQPIPSTPPYTLSPPSSGDPRMMHLRVDVDVRIETALRIAELLNREGSS” here?
**A.** not soluble

**Q.** With “MLLSVIITAQGRKGYVMQAVRSVLSQNIPKEDFEIIVSKDFKDDVIDEFLDGRAIVLNENHIRSGSRVASAVLQSSGKILVFLDDDDLFYPGKLREVKIVFSEMGVDYFKNSVKPVAESGDTVSYYQPAIKSDIFVKEPNEQDIRKLLKLRAGFNSSSISLKKDILVGYLDVLSKINLAVDSFYFFLYMSHSRPIYYSKKTLSLYRVLSKSTSRDVRNINAYAEFKSKFYELYSRDFETISEMASDGPCSKLAKTEFHLQMAYKWIFNTYRKEERPRMLHTLASSIYSHDPFIALPWPSFMKKIVQRREYFREKKLLSENTELEHHHHHH” as the sequence, how does the “soluble on expression in E. coli” value read?
**A.** not soluble

**Q.** For “MNAFDRARQSAIAAAREARGTYRNGLVTPTAGVAPGMTQANLIALPRDWAYDFLLYAQRNPKACPILDVSDAGSPTTLLAEGSDLRTDIPMYRIWRDGKLAEEVSDATQAWAEHDDMVAFLIGCSFTFETPLQEAGIEVRHITDGCNVPMYRTNRACRPAGRLHGEMVVSMRPIPADRVAEASAISGRYPSVHGAPVHIGEPGRLGINDLSRPDFGDAVSIKPGEVPVFWACGVTPQAAVMASGVPFAITHSPGYMFITDVPDSTYHVLEHHHHHH”, which “soluble on expression in E. coli” value is on record?
**A.** soluble

**Q.** Which “soluble on expression in E. coli” value does the source give for “MTALITQFWQQVETALKTANPQEKCRLVNDLYDNLLPQIQLIKLEDFPEIVPQDNIAAFPEKPLLVAPKDVPKRSFATEEGYAATLHAIAHIEFNAINLGLDAAWRFGRNAQEELGEGLAFVKDWLRVAREESTHFSLVNEHLKTLGYQYGDFEAHAGLWEMAQATAHDIWERMALVPRVLEARGLDATPVLQEKIAQRKDFAAVNILDIILRDEIGHVYIGNHWYHALSKKRGLDAMKCFTELLHKYRIVIFKGVINTDARIQAGFTQHELDWIYEVEQTLKSYIKKLEHHHHHH” here?
**A.** soluble

**Q.** For “MAHHHHHHGSRFLIRLVPEDKDRAFKVPYNHQYYLQGLIYNAIKSSNPKLATYLHEVKGPKLFTYSLFMAEKREHPKGLPYFLGYKKGFFYFSTCVPEIAEALVNGLLMNPEVRLWDERFYLHEIKVLREPKKFNGSTFVTLSPIAVTVVRKGKSYDVPPMEKEFYSIIKDDLQDKYVMAYGDKPPSEFEMEVLIAKPKRFRIKPGIYQTAWHLVFRAYGNDDLLKVGYEVGFGEKNSLGFGMVKVEGNKTTKEAEEQEKITFNSREELKTGV”, which “soluble on expression in E. coli” value is on record?
**A.** soluble

**Q.** Which “soluble on expression in E. coli” value does the source give for “MIKMAQLEDIRKMYFMEGLSIREINRRTGIHRDTISKYISLEEPKPPKYKLTKERTHPVLGPYIPMIKQIIEDDKTRHRKQRHTGTKIFETLKKEGFSGGYNTVMDYLRKEYRKQREAFLPLEFELGAYAEVDWTEAYFYLKGKETKAHLFVMKLRGSGGFYVRAYPFEKQEAFFDGHIKCFEFMNG” here?
**A.** not soluble

**Q.** With “MGSDKIHHHHHHMSQLLYDNGTHKCIAFTDLVEGEGIQANQFLIVNNGEGMLLDPGGNLTYKNLLAEMASYFLPAHLDYVFASHEDPDIVASANGWLLITDAKILIANEWTRFLPHFCSKGMTAGRVIGIPAQGMRVNLAGQELFVVPAHYMHSVGNFQVYDPVSKILFSGDLGANLVSGHDAAKVIEGAEAFAAHRAATSMDGFHRRYMGGQKVCRLWTNMARGMDIEWIVPQHGASFKGRETVLAFLDWFEGLESGPDLLTQKDFQFPIPENL” as the sequence, how does the “soluble on expression in E. coli” value read?
**A.** not soluble

**Q.** Which “soluble on expression in E. coli” value does the source give for “MNLMLCCTPLQVLIARKIIELHPNEQFFGVMFGGVWDKKRTLYASKLAEVCSDSMNIDTGKDLKGFDFLKLMRQLKNKITHKGFDKVFLANLNSLWLQTYLSHVSFKELYTFDDGSDNIFPHPNLLREPGTFKYKLIKAFIGDKYSVNKLFKKIKKHYTVYPNYKNIVSNIEPISLWDNQIDCEIDGEVSFFIGQPLLNTKEENISLIKKLKDQIPFDYYFPHPAEDYRVDGVNYVESELIFEDYVFKHLSNKKIIIYTFFSSVAFNLLSHPNVEIRFIRTSIPRWQFCYDSFPDLGLTIYKEI” here?
**A.** not soluble

**Q.** For “MGSDKIHHHHHHMIVGGLWMHLNEGSTPMDKYIEITAQKSRMYLLPDSSKVWMQPGSSIRFAEDFKKHRNVWLKGNSLFEVHKNMGRKFRVYIDKAFIEVKGTCFLIKQNNPSANEITLFNGSIEFNVESTQHKIEMKPLQELVYNPADAGTQLRQIENIEWQNGRYNFTQFNLEHLTRIINQMYGSRIIISDKVNKNCAFTGSIRYDESLEDVIDKICFSLNLRKKEINHEIIIYN”, which “soluble on expression in E. coli” value is on record?
**A.** not soluble

**Q.** Which “soluble on expression in E. coli” value does the source give for “MSTENAHLQKEDIVIESWLHKKGEHIRNWRPRYFILFRDGTLLGFRSKPKEDQPLPEPLNNFMIRDAATVCLDKPRPNMFIVRCLQWTTVIERTFYADSADFRQMWIEAIQAVSSHNRLKENAGNTSMQEEDTNGNPSGESDVNMDATSTRSDNDFESTVMNIDEPEEVPRKNTVTMDDFDFLKVLGQGTFGKVILCREKSSDKLYAIKIIRKEMVVDRSEVAHTLTENRVLYACVHPFLTLLKYSFQAQYHICFVMEFANGGELFTHLQRCKTFSEARTRFYGSEIILALGYLHHRNIVYRDMKLENLLLDRDGHIKITDFGLCKEEIKYGDKTSTFCGTPEYLAPEVIEDIDYDRSVDWWGVGVVMYEMMCGRLPFSAKENGKLFELITTCDLKFPNRLSPEAVTLLSGLLERVPAKRLGAGPDDAREVSRAEFFKDVDWEATLRKEVEPPFKPNVMSETDTSFFDRVRYVSILLKVSEAI” here?
**A.** not soluble

**Q.** Which “soluble on expression in E. coli” value does the source give for “SMKQDSRFPNLFILDHPLIQHKLTHMRDKDTSTRTFRELLREITLLMGYEITRNLPITTKRVETPLVEIDAPVIAGKKLAIVPVLRAGVGMSDGLLELIPSARVGHIGVYRADDHRPVEYLVRLPDLEDRIFILCDPMVATGYSAAHAIDVLKRRGVPGERLMFLALVAAPEGVQVFQDAHPDVKLYVASLDSHLDDHAYIVPGLGDAGDRLFGTKN” here?
**A.** soluble

**Q.** Which “soluble on expression in E. coli” value does the source give for “MSLTKTEGKTASAAVKDILLSNPDGLREVIRTVMQEVLEAEMDEALGAAKGERTPERLGYRSGHYGRTLITRVGKLELRVPQDRSGHFSTELFERYQRSERALVATLAEMYVQGVSTRKVKAITEELCGHAFSASSISAINKRLDESLKAFAERSLQEPFAYLILDARYEKVREAGVVMSQAVLIAVGIDWDGRRQILSVEMAGRESRCAWKNFLVRLKGRGLKGVELVVSDDHAGLVAAIGEVIPEAAWQRCYVHFLRNALDHLPRKHGDDCLQELRWLYDRRDLDEAKADLAAWLGKWSVRYPRLTSWVEETIEQTLTFFRLPRQHHKHLKSTNMLERLNEEIRRRTYVVRIFPNTESCLRLVRALAVETHENWMEANRYINMDDLREHKKLALRQAAEGHHHHHH” here?
**A.** soluble

**Q.** For “MIEFSHVSKLFGAQKAVNDLNLNFQEGSFSVLIGTSGSGKSTTLKMINRLVEHDSGEIRFAGEEIRSLPVLELRRRMGYAIQSIGLFPHWSVAQNIATVPQLQKWSRARIDDRIDELMALLGLESNLRERYPHQLSGGQQQRVGVARALAADPQVLLMDEPFGALDPVTRGALQQEMTRIHRLLGRTIVLVTHDIDEALRLAEHLVLMDHGEVVQQGNPLTMLTRPANDFVRQFFGRSELGVRLLSLRSVADYVRREERADGEALAEEMTLRDALSLFVARGCEVLPVVNMQGQPCGTLHFQDLLVEA”, which “soluble on expression in E. coli” value is on record?
**A.** soluble

**Q.** With “MSSSPTSSSSGSPSSHGHRSETEKQRRDDTNDLLNEFKKIVQKSESEKLSKEEVLFRIVKLLSGIQLHHESFSTSPGPIRSIKKIKSDREQVRRNKRVAAYRELRKFIALNNLSSSEEIDKMENLKVLEIIFEVIRGKSITCTVPCLPFPILPFLPVFPVYSPLVFNSYNQFSLYPPHMPTVQIPIVPSSSFEIDALEIEENEKDIDIVG” as the sequence, how does the “soluble on expression in E. coli” value read?
**A.** soluble

**Q.** For “MGSDKIHHHHHHMHTDINALFAALWQDYIQMTPSAAKVHALLGHGKPIINDHIALRTFNIAKVNLDVLAKHFTSLGYVACGDYKFEQKKLVAKHFEHPDSTQPKVFISELLVEEFSPALQATIQGLIAQVDVAATTADNFIYSGRHWSLDSQTYEDLLAESEYAAWVAAFGYRANHFTVSINHLDGFDTLESVNNALKQAGFVLNSSGGEIKGSPEVLLEQSSTMADKIGVEFTNATVEIPSCFYEFALRYPMANGELYTGFVAASADKIFESTNVNKA”, which “soluble on expression in E. coli” value is on record?
**A.** not soluble

**Q.** For “QAPGWLKEMRGEHAPETEEYGIASTAYRARRPFHPQRFFDLINRPWTNGKLLRSKGFFWLASKYKDAGSWSQAGGLMRHGFAGRWWRFVTRDSWPQDKESVASILENWSSETGDCRQELVFIGQNIDFTLLTAELDNCLLTDDEMAAGAERWRQLSDPFGEWYEDEVAA”, which “soluble on expression in E. coli” value is on record?
**A.** not soluble

**Q.** With “MGSDKIHHHHHHMKKLENKKSSSIKLETVRRKTINLSETEFIKIDFLTHWETLPIVLKPNIDYLDLADWIESSQNFIETKLLKYGAILFRGFNVDTATTFERVCLALCSDLFNENGEHPRKSVSGKVYTPVSYPADKKLLWHNENSFNYSWPRKILFGCLQPAQQGGETPIVDSRIVFQLIDPKIRERFIDKKVMYIRNYGDRLGLNWETVFQTSDRLEVEAACTKAAIDFEWKTGNRLRTIAVRPAVVKHPQTKEMSWFNQAQHWHPACLDSQTRESLLSMFKQEDLPRNCYYGDGSLIEDSVLEEICGVYQQLEVSFPWKRGDLLLLDNLLTAHSRNSYMGERQLLVAMGEMANFEDV” as the sequence, how does the “soluble on expression in E. coli” value read?
**A.** not soluble

**Q.** For “MQDWWEADNRLADWLSMILIQRTIEKNAKQALANLGPHLDLESLIGMDMATLEEYIYPAGFYKQKSIYIKALIKWFHGHGASLDKFQTYSTEDLRKELLGIKGVGEETADAMLLYIFERNVFIADLEHHHHHH”, which “soluble on expression in E. coli” value is on record?
**A.** not soluble

**Q.** Which “soluble on expression in E. coli” value does the source give for “MSLSDAAAVTVVEQTEKRHKLIGYWHNFVNGAGCPIRLADMADAWDVIDIAFAENDRNSDGTVHFNLYSGDIYSDCPALDPTQFKQDMAALQAKGKKFVLSLGGAEGTITLNTDQDEANFVSSLTGLIAEWGFDGLDVDLESGSNLVHGSQIQARLGRALLQIEQNMGGDMYLTMAPEHPYVQGGYVAYSGIWGAYIPVINDTRSTLDLLHVQLYNNGGLPNPYLPSSAPEGSVDMMVAQSKMLIEGFELADGTQFAPLRDDQVAIGLPSGPSSANSGQAPTQNILNALDCLTKGTSCGTVKPAFNYPNYAGVMTWSINWDQHDGFNFSKPVGDKLTQMNAEGHHHHHH” here?
**A.** soluble

**Q.** For “MNLFYNKEAVGDVAFLQINPTEGEYNYVTQGDVVEIQNDGEVVGYNIFNASNKATLTGNGHIKLTETLVQAFQKAIEAAGFTYKLDADFTPKFVVGYVETKDKHPDADKLSVLSVDVATEKLQIVCGAPNVEAGQKVVVAKVGAVMPSGMVIKDAELRGVASSGMICSMKELGLPNAPQEKGIMVLSDDYTVGQSFFEVLEHHHHHH”, which “soluble on expression in E. coli” value is on record?
**A.** soluble
